Consider one molecule from article PMC2064081 (The Journal of Cell Biology, 2007).

This experiment deals with F-actin (rabbit muscle actin, filaments) (rabbit, UniProt P68135 1-377). Put plainly: co-sedimentation.

B1: IRSp53/IMD (IRSp53/MIM domain of human IRSp53) (domain or fragment)
chain: MSLSRSEEMHRLTENVYKTIMEQFNPSLRNFIAMGKNYEKALAGVTYAAKGYFDALVKMGELASESQGSKELGDVLFQMAEVHRQIQNQLEEMLKSFHNELLTQLEQKVELDSRYLSAALKKYQTEQRSKGDALDKCQAELKKLRKKSQGSKNPQKYSDKELQYIDAISNKQGELENYVSDGYKTALTEERRRFCFLVEKQCAVAKNSAAYHSKGKELLAQKLPLWQQACADPSKIPERAVQLMQQVASN
B1: the binding result is reported as “binds”.
